Experimental data published in paper PMC9529903, “Structural insights of the elongation factor EF-Tu complexes in protein translation of Mycobacterium tuberculosis” (Communications Biology, 2022).

How the values were obtained:
[1] = molecular target: EF-Ts (Escherichia coli) (UniProt P0A6P1); conditions: cited from earlier work
[2] = molecular target: T1, EF-Tu (Mycobacterium tuberculosis, UniProt P9WNN1); test: biochemical; type: binding
T1 construct: gene tuf; full-length

[3] = molecular target: T2, Mycobacterium tuberculosis elongation factor EF-Tu (Mycobacterium tuberculosis, UniProt P9WNN1 1-396); test: ITC; conditions: both partners purified
T2 construct: also called Mtb EF-Tu
T2 sequence (P9WNN1 whole entry): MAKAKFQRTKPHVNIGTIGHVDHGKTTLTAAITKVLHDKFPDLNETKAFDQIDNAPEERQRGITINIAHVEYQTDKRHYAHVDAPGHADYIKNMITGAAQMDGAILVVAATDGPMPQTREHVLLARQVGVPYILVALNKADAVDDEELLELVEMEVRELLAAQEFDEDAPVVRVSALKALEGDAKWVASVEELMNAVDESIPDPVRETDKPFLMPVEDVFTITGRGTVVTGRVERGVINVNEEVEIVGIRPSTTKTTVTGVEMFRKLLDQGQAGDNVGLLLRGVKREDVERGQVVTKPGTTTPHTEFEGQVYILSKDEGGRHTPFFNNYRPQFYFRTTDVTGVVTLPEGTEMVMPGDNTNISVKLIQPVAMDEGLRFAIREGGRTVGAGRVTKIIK

EF-Ts (Escherichia coli), sequence (P0A6P1 2-283): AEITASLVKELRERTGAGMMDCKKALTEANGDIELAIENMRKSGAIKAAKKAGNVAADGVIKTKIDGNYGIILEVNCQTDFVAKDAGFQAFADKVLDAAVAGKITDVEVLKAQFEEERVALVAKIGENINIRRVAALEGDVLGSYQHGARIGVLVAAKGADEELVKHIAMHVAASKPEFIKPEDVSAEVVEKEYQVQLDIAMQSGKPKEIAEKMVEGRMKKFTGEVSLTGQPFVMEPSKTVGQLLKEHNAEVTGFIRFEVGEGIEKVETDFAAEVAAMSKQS
T1 sequence (P9WNN1 whole entry): as the sequence (P9WNN1 whole entry) above

Q: With EF-Tu (from UniProt P0CE47) as the molecule, how does the Kd [1] read?
A: 0.002 µM

Q: With `C=CC(=O)Nc1cc(Nc2nccc(-c3cn(C)c4ccccc34)n2)c(OC)cc1N(C)CCN(C)C` [Osimertinib] as the molecule, how does the Kd [2] read?
A: 207 µM

B1: Mycobacterium tuberculosis elongation factor EF-Ts (natural protein)
chain: MANFTAADVKRLRELTGAGMLACKNALAETDGDFDKAVEALRIKGAKDVGKRAERATAEGLVAAKDGALIELNCETDFVAKNAEFQTLADQVVAAAAAAKPADVDALKGASIGDKTVEQAIAELSAKIGEKLELRRVAIFDGTVEAYLHRRSADLPPAVGVLVEYRGDDAAAAHAVALQIAALRARYLSRDDVPEDIVASERRIAEETARAEGKPEQALPKIVEGRLNGFFKDAVLLEQASVSDNKKTVKALLDVAGVTVTRFVRFEVGQA
notes: also called Mtb EF-Ts
Q: For B1, which Kd [3] is on record?
A: ~1.36 µM

Q: What about the “stoichiometry N” value [3] of the same molecule?
A: 1
